Data reported in the nanobody polyreactivity screen of Harvey et al. (2022).

Assay: yeast display, Sf9 membrane polyspecificity reagent, FACS + sequencing; frameworks hold sequencing errors
Procedure, shortened: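 Polyreactivity labels are assigned by the sorting gate from which each nanobody was recovered. The gates were low and high (top ~1%), set on anti-HA fluorescence for expression and streptavidin fluorescence for reagent binding. Before sorting, galactose-induced (36–48 hours) yeast display cells were stained for 1 hour at 4 °C with 10% biotinylated, detergent-solubilized Sf9 membrane reagent.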
For “QVQLVESGGGLVQAGGSLRLSCAASGSIFHYNAMGWSRQAPGKERELVAAISRGGSTHYADSVKGRFTISRDNAKNTVYLQMNSLKPEDTAVYYCATVQVVGPWSYRKLDYCGQGTQVTVSS”, the “polyreactivity (PSR sort gate)” value was “high polyreactivity”. In the case of “QVQLVESGGGLVQAGGSLRLSCAASGSIFHYYAMGWYRQAPGKERELVAAINSSGGSRTYYADSVKGRFTISRDNAKNTVYLQMNSLKPEDTAVYYCAAARDVFLGLQIWYWYGGDYWGQGTQVTVSS”, the “polyreactivity (PSR sort gate)” value is reported as “low polyreactivity”. In the case of “QVQLVESGGGLVQAGGSLRLSCAASGSIFHYYAMGWYRQAPGKERELVAAISWSGGRTNYADSVKGRFTISRDNAKNTVYLQMKSLKPEDTAVYYCAAGNSFSDRGHRVYFQYYYWGQGTLVTVSS”, the “polyreactivity (PSR sort gate)” value is reported as “high polyreactivity”. In the case of “QVQLVESGGGLVQAGGSLRLSCAASGSIFIANAMGWYRQAPGKERELFAAITLNGGSTYYADSVKGRFTISRDNAKNTVYLQMNSLKPEDTAVYYCAADWVWVAPQYWIVEYDYRGQGTQVTVSS”, the “polyreactivity (PSR sort gate)” value is reported as “low polyreactivity”. With “QVQLVESGGGLVQAGGSLRLSCAASGSIFIDNAMGWYRQAPGKEREFVAAISKSGTSTYYADSVKGRFTISRDNAKNTVYLQMNSLKPEDTAVYYCAVRRPRPYSNYYYWGQGTQVTVSS” the “polyreactivity (PSR sort gate)” value was “high polyreactivity”. With “QVQLVESGGGLVQAGGSLRLSCAASGSIFIDYVMGWYRQAPGTERELVAAISKRGGSTYYADSVKGRFTISRDNAKNTVYLQMNSLKPEDTAVYYCNAYRIGVYTAKDGYWGQGTQVTVSS” the “polyreactivity (PSR sort gate)” value was “high polyreactivity”. With “QVQLVESGGGLVQAGGSLRLSCAASGSIFIGNAMGWYRQAPGKERELVAAITWSGGSTTYADSVKGRFTISRDNAKNTVYLQMNSLKPEDTAVYYCNASIYQRYDYWGQGTQVTVSS” the “polyreactivity (PSR sort gate)” value was “low polyreactivity”. With “QVQLVESGGGLVQAGGSLRLSCAASGSIFIHNAMGWYRQAPGKERELVPGITTGGSTYYADSVKGRFTISRDNAKNTVYLQMNSLKPEDTAVYYCATARSYLTYSYHYDYWGQGTQVTVSS” the “polyreactivity (PSR sort gate)” value was “low polyreactivity”. For “QVQLVESGGGLVQAGGSLRLSCAASGSIFINYVMGWYRQAPGKERELVAAISSIGDSTYYADSVKGRFTISRDNAKNTVYLQMNSLKPEDTAVYYCNAEIPSLKASPLYRYDYWGQGTKVTVSS”, the “polyreactivity (PSR sort gate)” value was “high polyreactivity”. In the case of “QVQLVESGGGLVQAGGSLRLSCAASGSIFIPYAMGWYRQAPGKERELVAAISGSGTSTNYADSVKGRFTISRDNAKNTVYLQMNSLKPEDTAVYYCAARLPYGYLRSKFYYWGQGTQVTVSS”, the “polyreactivity (PSR sort gate)” value is reported as “high polyreactivity”. For “QVQLVESGGGLVQAGGSLRLSCAASGSIFISNAMGWYRQAPGKEWELVAAINWTTGRTRYADSVKGRFTISRDNAKNTVYLQMNSLKPEDTAVYYCAARPYGGGRRSIYYYWGQGHQVTVSS”, the “polyreactivity (PSR sort gate)” value was “high polyreactivity”. In the case of “QVQLVESGGGLVQAGGSLRLSCAASGSIFISNAMGWYRQAPGTERELVAAISRSGARTYYADSVKGRFTISRDNAKNTVYLQMNSLKPEDTAVYYCAVVGYSPYKYDYWGQGTQVTVSS”, the “polyreactivity (PSR sort gate)” value is reported as “high polyreactivity”. In the case of “QVQLVESGGGLVQAGGSLRLSCAASGSIFISYAMGWYRQAPGKERELVAAISRSAGRTYYADSVKGRFTISRDNAKNTVYLQMNSLQPEDTAVYYCAASGYKNGVYTYGYWGQGTQVTVSS”, the “polyreactivity (PSR sort gate)” value is reported as “high polyreactivity”. In the case of “QVQLVESGGGLVQAGGSLRLSCAASGSIFITYAMGWYIQAPGKERELVTAIRDSGDRTYYADSVKGRFTISRDNAKNTVYLQMNSLKPEDTSVYYCAAVLYSRLYWDRLDYWGQGTQVTVSS”, the “polyreactivity (PSR sort gate)” value is reported as “low polyreactivity”. In the case of “QVQLVESGGGLVQAGGSLRLSCAASGSIFITYAMGWYRQAPGKERELVAAIRDSGDRTYYADSVKGRFTISRDNAKNTVYLQMNSLKPEDTAVYYCAKRAWGSPYGYWGQGTQVTVSS”, the “polyreactivity (PSR sort gate)” value is reported as “low polyreactivity”. With “QVQLVESGGGLVQAGGSLRLSCAASGSIFITYAMGWYRQPPGKERELVATITSRSGGTYYADSVKGRFTISRDNAQNTVYLQMNSLKPEDTAVYYCNAVYTYPVFHGMGYWGQGTQVTVSS” the “polyreactivity (PSR sort gate)” value was “high polyreactivity”. With “QVQLVESGGGLVQAGGSLRLSCAASGSIFITYAMVWSRQAPGKERELVAAIRDSGDRTYYADSVKGRFTISRDNAKNTVYLQMNSLKPEDTAVYYCAADYFVQVPDYYYASEYGYWGQGTQVTVSS” the “polyreactivity (PSR sort gate)” value was “low polyreactivity”. With “QVQLVESGGGLVQAGGSLRLSCAASGSIFIVNVMGWYRQAPGKERELVAGITTNGGITYYADSVKGRFTISRDNAKNTVYLQMNSLKPEDTAVYYCATRSGSPSSIEMDYWGQGTQVTVSS” the “polyreactivity (PSR sort gate)” value was “low polyreactivity”. With “QVQLVESGGGLVQAGGSLRLSCAASGSIFIVYAMGWYRQAPGKERELVAAISYRGGSTYADSVKGRFTISRDNAKNTVYLQMNSLKPEDTAVYYCAADDLSYVGYYYGYVDDDYWGQGTQVTVSS” the “polyreactivity (PSR sort gate)” value was “high polyreactivity”. For “QVQLVESGGGLVQAGGSLRLSCAASGSIFIWYSMGWYRQAPGKERELVASITYSAGRTYYADSVKGRFTISRDNAKNTVYLQMNSLKPEDTAVYYCAADSPYVYTLDSYGEGDYWGQGSQVTVSS”, the “polyreactivity (PSR sort gate)” value was “low polyreactivity”. With “QVQLVESGGGLVQAGGSLRLSCAASGSIFIYYAMGWTRQAPGKERELVATISSDDRTNYTDSVKGRFTISRDNAKNTVYLQMNSLKPEDTAVYYCAADRYWGGRDGPEYDYWGQGTQVTVSS” the “polyreactivity (PSR sort gate)” value was “low polyreactivity”. With “QVQLVESGGGLVQAGGSLRLSCAASGSIFIYYAMGWYRQAPGKERELVAAISSSGGSTYYADSVKGRFTISRDNAKNTVYLQTNSLKPEDTAVYYCATVPYRYYDDDYWGQGTQVTVSS” the “polyreactivity (PSR sort gate)” value was “high polyreactivity”. With “QVQLVESGGGLVQAGGSLRLSCAASGSIFIYYAMGWYRQPPGKERELVAAISYSDGDTYYADSVKGRFTISRDNAKNTVYLQMNSLKPEDTAVYYCAAEVTLSYDVGWEDYWGQGTQVTVSS” the “polyreactivity (PSR sort gate)” value was “high polyreactivity”. For “QVQLVESGGGLVQAGGSLRLSCAASGSIFIYYTMGWYRQAPGKERELVAAISWRGGRTYYADSVKGRFTISRDNAKNTVYLQMNSLKPEDTAVYYCNAQPSVYYGRWGLNYGYWGQGTQVTVSS”, the “polyreactivity (PSR sort gate)” value was “high polyreactivity”. With “QVQLVESGGGLVQAGGSLRLSCAASGSIFKCNSRGWYRQAPVKERELVAAITFSGSSTFYADSVKGRFTISRDTAKNTVYLQMNSLKTEDSALYYCNAVRRQQFGSWGQGTQGTVSS” the “polyreactivity (PSR sort gate)” value was “high polyreactivity”. In the case of “QVQLVESGGGLVQAGGSLRLSCAASGSIFKDYAMGWYRQAPGKERELVAAITSGGRTNYADSVKGRFTISRDNAKNTVYLQMNSLKPEDTAVYYCAARKGKETLYHSTPPYYYWGQGTQVTVSS”, the “polyreactivity (PSR sort gate)” value is reported as “low polyreactivity”. In the case of “QVQLVESGGGLVQAGGSLRLSCAASGSIFKFYTMGWYRQAPGKERELVAAISWSGGRTYYADSVKGRFTISRDNAKNTVYLQMNSLKPEDTAVYYCAVPRVGLHGIGSDYWGQGTQVTVSS”, the “polyreactivity (PSR sort gate)” value is reported as “high polyreactivity”. In the case of “QVQLVESGGGLVQAGGSLRLSCAASGSIFKFYTMGWYRQAPGKERELVATISRSGGGTFYADSVKGRFTISGDNSKNTVYLQMNSLKPEDTAVYYCSADPAFTHYPFGYGYWGQGTQVTVSS”, the “polyreactivity (PSR sort gate)” value is reported as “low polyreactivity”. For “QVQLVESGGGLVQAGGSLRLSCAASGSIFKGNAMGWYRQAPRKERELVATITSSGDSTNYADSVKGRFTISRDNAKNTVYLQMNSLKPEDTAVYYCATEPFRYSLAGGYWGQGTQVTVSS”, the “polyreactivity (PSR sort gate)” value was “low polyreactivity”. With “QVQLVESGGGLVQAGGSLRLSCAASGSIFKGYAMGWYRQAPGKERELVAAISGGGGSTYYADSVKGRFTISRDNAKNTVYLQMNSLKPEDTAVYYCNRDDSWSTTGAYDYWGQGTQVTVSS” the “polyreactivity (PSR sort gate)” value was “low polyreactivity”. With “QVQLVESGGGLVQAGGSLRLSCAASGSIFKGYAMGWYRQAPGKERELVASISWRGDNTYYADSVKGRFTISRDYAKNTVYLQMNSLKPEDTAVYYCNAQSREHYFFIYDYWGQGTQVTVSS” the “polyreactivity (PSR sort gate)” value was “high polyreactivity”. For “QVQLVESGGGLVQAGGSLRLSCAASGSIFKIYAKGWYRQAPGKERELVASITGSGGSTYYADSVKGRFTISRDNAKNTVYLQMNSLKPEDTAVYYCAAAVLGSSKSEVDPDRPEYYYWGQGTQVTVSS”, the “polyreactivity (PSR sort gate)” value was “low polyreactivity”. For “QVQLVESGGGLVQAGGSLRLSCAASGSIFKIYAMGWYRQAPGKERELVAAITINGGSTYYADSVKGRFTISRDNAKNTVYLLMNSLKPEDTAVYYCAADFFHRAGWYFAYGHWGQGTQVTVSS”, the “polyreactivity (PSR sort gate)” value was “low polyreactivity”. With “QVQLVESGGGLVQAGGSLRLSCAASGSIFKKYAMGWYRQAPGKERELFAAITRGTYYADSVKGRFTISRDNAKNTVYFQMNSLKPEDTAVYFCNREYWGRGYYRVRGEYDYWGQGTQVTVSS” the “polyreactivity (PSR sort gate)” value was “low polyreactivity”. For “QVQLVESGGGLVQAGGSLRLSCAASGSIFKKYAMGWYRQSPGKERELVAAISSTGGSTKYADSVKGRFTISRDNAKNTVYLQMNSLKPEDTAVYYCAVRYKWPYDYWGQGTQVTVSS”, the “polyreactivity (PSR sort gate)” value was “high polyreactivity”. With “QVQLVESGGGLVQAGGSLRLSCAASGSIFKPYAMGWYRQAPGKERELVAAISSSGGSTYYADSVKGRFTISRDNAKNTVYLQMNSLKPEDTAVYYCNADWYYAGYGYWGQGTQVTVSS” the “polyreactivity (PSR sort gate)” value was “low polyreactivity”. With “QVQLVESGGGLVQAGGSLRLSCAASGSIFKPYVMGWYRQAPGKERELVAAITSSGVSTYYADSVKGRFTISRDNAKNTVYLQMNSLKPEDTAVYYCAADQYLGRAWRRRGYYWGQGTQVTVSS” the “polyreactivity (PSR sort gate)” value was “high polyreactivity”. For “QVQLVESGGGLVQAGGSLRLSCAASGSIFKQNNMGWYRQAPGKERELVAAISSGGSTYYADSVKGRFTISRDNAKNTVYLQMNSLKPEDTAVYYCAKYYDWDYYLPLEGDYWGQGTQVTVSS”, the “polyreactivity (PSR sort gate)” value was “low polyreactivity”. For “QVQLVESGGGLVQAGGSLRLSCAASGSIFKRYAMGWYRQAPGKERELVAAISTSGGRTYYADSVKGRFTISRDNAKNTVYLQMNRLNQEDTAVYYCAADIWARYYFWGFEHDYWGQGTQVTVSS”, the “polyreactivity (PSR sort gate)” value was “low polyreactivity”. With “QVQLVESGGGLVQAGGSLRLSCAASGSIFKRYARGWYRPAPGKERELVAAISWSGGNTYYADSVKGRFTISRDNSKNTVYLQMNSLKPEDTAVYYCAKRYRGGYYYPYNYWGQGTQVTVSS” the “polyreactivity (PSR sort gate)” value was “high polyreactivity”.
